Assay results: the supplement of paper PMC9876800

Tested on: peptide library, one residue held at a place counted from the S/T acceptor
Test: relative phosphorylation of the sub-library (ratio to the mean residue at this position); higher = residue favoured
In short: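 Human or orthologue kinase constructs, purified and recombinant, were incubated under kinase-specific conditions in 384-well plates with biotinylated degenerate peptide sub-libraries. Each sub-library fixed one residue at one position around a central Ser/Thr. Incubations lasted 90 min with peptides at 50 μM and 50 μM ATP spiked with γ-32P-ATP, after which spots on streptavidin membranes were phosphorimaged and quantified by densitometry. Relative sub-library phosphorylation is a ratio to the mean residue at that position.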

Sequence of ALPK1, construct: aa1-474 and aa959-end, human (Q96QP1 1-474, looked up): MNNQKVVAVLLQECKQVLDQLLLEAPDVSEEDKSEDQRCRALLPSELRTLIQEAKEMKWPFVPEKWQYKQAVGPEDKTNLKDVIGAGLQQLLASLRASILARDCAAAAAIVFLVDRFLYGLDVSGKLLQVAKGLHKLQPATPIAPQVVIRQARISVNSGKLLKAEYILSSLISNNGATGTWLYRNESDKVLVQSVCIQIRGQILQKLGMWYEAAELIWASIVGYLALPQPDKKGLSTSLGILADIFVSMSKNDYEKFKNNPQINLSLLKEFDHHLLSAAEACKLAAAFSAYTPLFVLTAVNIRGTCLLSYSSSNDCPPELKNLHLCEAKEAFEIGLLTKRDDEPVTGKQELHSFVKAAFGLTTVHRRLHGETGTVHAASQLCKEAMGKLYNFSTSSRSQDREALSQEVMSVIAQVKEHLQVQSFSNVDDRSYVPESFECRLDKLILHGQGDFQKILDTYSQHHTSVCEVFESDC

ALPK1, construct: aa1-474 and aa959-end, human (from UniProt Q96QP1)
relative phosphorylation
Details | at +1 | at +2 | at +3 | at +4 | at -1 | at -2 | at -3 | at -4 | at -5
A fixed | 0.392 | 0.063 | 0.503 | 1.02 | 0.957 | 1.29 | 0.868 | 0.65 | 0.43
D fixed | 0.704 | 0.889 | 1.31 | 1.21 | 2.26 | 1.87 | 2.74 | 2 | 1.61
E fixed | 3.35 | 2.03 | 1.22 | 1.27 | 1.9 | 0.573 | 1.83 | 1.77 | 1.83
F fixed | 0.991 | 1.09 | 1.36 | 1.05 | 0.862 | 0.626 | 0.757 | 1.02 | 0.92
G fixed | 0.404 | 0.704 | 0.365 | 0.933 | 0.798 | 0.731 | 0.687 | 0.798 | 0.812
H fixed | 1.15 | 1.07 | 1 | 1.37 | 0.779 | 0.466 | 1.21 | 1.24 | 0.763
I fixed | 1.27 | 1.14 | 0.752 | 0.378 | 1.16 | 1.02 | 0.608 | 0.848 | 1.02
K fixed | 0.774 | 1.49 | 1.08 | 1.09 | 1.13 | 0.599 | 0.905 | 1.31 | 0.94
L fixed | 0.474 | 1.11 | 1.09 | 0.718 | 0.704 | 1.29 | 0.392 | 0.763 | 0.67
M fixed | 1.63 | 1.38 | 1.49 | 0.671 | 0.979 | 1.13 | 0.9 | 0.651 | 1.14
N fixed | 0.75 | 1.19 | 0.97 | 1.36 | 0.572 | 0.718 | 1.11 | 0.874 | 1.08
P fixed | 0.39 | 1.01 | 0.781 | 1.16 | 0.805 | 1.54 | 0.952 | 1.02 | 0.971
Q fixed | 1.01 | 0.617 | 0.852 | 0.914 | 0.933 | 1.31 | 0.826 | 0.758 | 1.16
R fixed | 1.23 | 0.649 | 0.935 | 0.774 | 0.731 | 0.797 | 1.02 | 1.09 | 1.28
V fixed | 0.557 | 1.08 | 1.06 | 0.914 | 0.569 | 1.09 | 0.694 | 0.547 | 0.996
W fixed | 0.811 | 1.01 | 1.06 | 1.1 | 1.04 | 0.771 | 0.557 | 0.92 | 0.613
Y fixed | 1.11 | 0.478 | 1.17 | 1.06 | 0.826 | 1.18 | 0.944 | 0.741 | 0.762
pThr fixed | 0.485 | 1.34 | 1.32 | 1.94 | 1.71 | 1.9 | 2.27 | 1.42 | 1.5
pTyr fixed | 1.74 | 1.33 | 1.73 | 2.97 | 9.01 | 0.489 | 1.53 | 1.85 | 1.83
